Measured values taken from the nanobody polyreactivity screen of Harvey et al. (2022).

Experiment: yeast display, Sf9 membrane polyspecificity reagent, FACS + sequencing; frameworks hold sequencing errors
In short: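 After 36–48 hours of galactose induction, yeast (Saccharomyces cerevisiae BJ5465) displaying a synthetic nanobody library were stained at 4 °C for 1 hour with 10% biotinylated, detergent-solubilized Sf9 membrane reagent. Streptavidin microbeads enriched the stained cells before FACS sorting into low and high (top ~1%) gates on anti-HA and streptavidin fluorescence. Each clone's polyreactivity label reflects its gate of origin.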

**Q.** For “QVQLVESGGGLVQAGGSLRLSCAASGFIFVKNAMGWYRQAPGKESELVAVISTRGGRTYYADSVKGRFTISRDNAKNTVYLQMNSLKPEDTAVYYCAAGDQYKTRRNGYGYWGQGTQVTVSS”, which “polyreactivity (PSR sort gate)” value is on record?
**A.** The value was “high polyreactivity”.

**Q.** Which “polyreactivity (PSR sort gate)” value does the source give for “QVQLVESGGGLVQAGGSLRLSCAASGFIFVKYAIGWYRTAPGKERELVAAITTSGTGTFYADSVKGRFTISRDNAKNTVYLQMNSLKPEDTAVYYCNALGHPGDDWGQGTQVTVSS” here?
**A.** The value was “low polyreactivity”.

**Q.** For “QVQLVESGGGLVQAGGSLRLSCAASGFIFVKYAMGWYRQAPGKERELVAAISWSGGTTYYSDSVKGRFTISRDNAKNTVYLKMNSLKPEDTAVYYCAAEYYTGYFKYDYWGQGTQVTVSS”, which “polyreactivity (PSR sort gate)” value is on record?
**A.** Its value is “high polyreactivity”.

**Q.** For “QVQLVESGGGLVQAGGSLRLSCAASGFIFVLYAMGWYRQAPGKERELVAAITWSTGSTYYADSVKGRFTISRDNAKNTVYLQMNSLKPEDTAVYYCAADQYIFGIWFDYWGQGTQVTVSS”, which “polyreactivity (PSR sort gate)” value is on record?
**A.** Its value is “high polyreactivity”.

**Q.** For “QVQLVESGGGLVQAGGSLRLSCAASGFIFVRNAMGWYRQAPGKERELVAAISSRGGRTYYADSVKGRFTISRDNAKNTVYLQMNSLKPEDTAVYYCNADRDTQGDGYDYWGQGTQVTVSS”, which “polyreactivity (PSR sort gate)” value is on record?
**A.** Its value is “high polyreactivity”.

**Q.** For “QVQLVESGGGLVQAGGSLRLSCAASGFIFVRNAMGWYRQAPGKERELVAAITGRGGRTYYADSVKGRFTISRDNAKNTVYLQMNSLKPEVTAVYYCAIDSPDDHFGYWGQGTQVTVSS”, which “polyreactivity (PSR sort gate)” value is on record?
**A.** The value was “high polyreactivity”.

**Q.** For “QVQLVESGGGLVQAGGSLRLSCAASGFIFVRYAMGWYRPAPGKERELVAVITSGGSTYYADSVKGRFTISRDNAKNTVYLQMNSLKPEDTAVYYCAAQSKRYVRSYSWYDYWGQGTQVTVSS”, which “polyreactivity (PSR sort gate)” value is on record?
**A.** Its value is “high polyreactivity”.

**Q.** Which “polyreactivity (PSR sort gate)” value does the source give for “QVQLVESGGGLVQAGGSLRLSCAASGFIFVRYAMGWYRQAPGKERELVAAISSGGSTQYADSVKGRFTISRDNAKNTVDLQMNSLKPEDTPVYYCAAAATPGRGGDYWGQGTQVTVSS” here?
**A.** Its value is “high polyreactivity”.

**Q.** Which “polyreactivity (PSR sort gate)” value does the source give for “QVQLVESGGGLVQAGGSLRLSCAASGFIFVRYAMGWYRQAPGKEREMVAAISSGGSTKYADSVKGRFTISRDNAKNTVYLQMNSLKPEDTAVYYCAADATPGRGVDYWGQGTQVTVSS” here?
**A.** The value was “high polyreactivity”.

**Q.** For “QVQLVESGGGLVQAGGSLRLSCAASGFIFVSYAMGWYRPAPGKERELVAAIDRIGGITYYADSVKGRFTISRDNAKNTVYLQMNSLKPEDTAVYYCAAAARYATVRVGREYYWGQGTQVTVSS”, which “polyreactivity (PSR sort gate)” value is on record?
**A.** Its value is “low polyreactivity”.

**Q.** Which “polyreactivity (PSR sort gate)” value does the source give for “QVQLVESGGGLVQAGGSLRLSCAASGFIFVWYAMGWYRQAPGKERELVAAINGGGRTNYADSVKGRFTISRDNAKYTVYLQMNSLKPEDTAVYYGAAVSYYKSYGEFDYWGQGTQVTVSL” here?
**A.** Its value is “high polyreactivity”.

**Q.** With “QVQLVESGGGLVQAGGSLRLSCAASGFIFVYNAMGWYRPAPGKERELVAAINGSGDSTYYADSVKGRFTISRDNAKNTVYLQMNSLKPEDTAVYYCAARYKVPLSRYILVLYDYWGQGTQVTVSS” as the sequence, how does the “polyreactivity (PSR sort gate)” value read?
**A.** The value was “low polyreactivity”.

**Q.** For “QVQLVESGGGLVQAGGSLRLSCAASGFIFVYNAMGWYRQAPGKEREFVASITWSGGRTYYADSVKGRFTISRDNAKNTVYLLMNILKPEDTAVYYCATKYPNSQGRRYDYWGKGTQVTVSS”, which “polyreactivity (PSR sort gate)” value is on record?
**A.** The value was “low polyreactivity”.

**Q.** For “QVQLVESGGGLVQAGGSLRLSCAASGFIFVYNDMGWYRQAPGKERELVAAISSSGGSTYYADSVKGRFTISRDNAKNTVYLKMNSLKAEDTAVYYCAKTGWNLDYSYSTDGYDYWGQGTLVTVSS”, which “polyreactivity (PSR sort gate)” value is on record?
**A.** Its value is “high polyreactivity”.

**Q.** For “QVQLVESGGGLVQAGGSLRLSCAASGFIFVYYAMGWYRQAPGKERELVAAINQSGGRTYYADSVKGRFTISRDNAKNTVYLQMNSLKPEDTAVYYCAAESWDLYRYGQKHEYWGQGTQVTVSS”, which “polyreactivity (PSR sort gate)” value is on record?
**A.** The value was “low polyreactivity”.

**Q.** For “QVQLVESGGGLVQAGGSLRLSCAASGFIFVYYAMGWYRQAPGKERELVAAISSDGSTNYADSVKGRFTISRDNAKNTVYLQMNSLKPEDTAVYYCNARYVASPSGKRRLIDVDYWGQGTQVTVSS”, which “polyreactivity (PSR sort gate)” value is on record?
**A.** The value was “low polyreactivity”.

**Q.** With “QVQLVESGGGLVQAGGSLRLSCAASGFIFVYYGMGWYRQAPGKERELVAAISRSGGSTYYADSVKGRFTISRDNAKNTVYLQMNSLKPEDTAVYYCAARPDRSSQFDSWGQGTQVTVSS” as the sequence, how does the “polyreactivity (PSR sort gate)” value read?
**A.** The value was “high polyreactivity”.

**Q.** For “QVQLVESGGGLVQAGGSLRLSCAASGFIFVYYGMVWYRQAPGKERELVAAISRSGGSTYYADSVKGRFTISRDNAKNTVYLQMNSLKPEDTAVYYCNVVRWYYHPPLTGSRFDYWGHGTQVTVSS”, which “polyreactivity (PSR sort gate)” value is on record?
**A.** The value was “high polyreactivity”.

**Q.** For “QVQLVESGGGLVQAGGSLRLSCAASGFIFWFNAMGWYRQAPGKERELVATISWSDTSTYYADSVKGRFTISRDNAKNTVYLQMNSLKPEDTAVYYCATDGRETWLPEYYWGQGTQVTVSS”, which “polyreactivity (PSR sort gate)” value is on record?
**A.** The value was “low polyreactivity”.

**Q.** For “QVQLVESGGGLVQAGGSLRLSCAASGFIFWKYAMGWYRQAPGKEREFVAAINWRGDRTYYADSVKGRFTISRDNAKNTVYLQMNSLKPEDTAVYYCAAVVGYYHRRFDYWGQGTQVTVSS”, which “polyreactivity (PSR sort gate)” value is on record?
**A.** Its value is “high polyreactivity”.

**Q.** For “QVQLVESGGGLVQAGGSLRLSCAASGFIFWPYAMGWYRQAPGKERELVAAITTGGSTNYADSVKGRFTISRDNAKNTVYLQMNSLKPEDTAVYYCAKGYYFGYYEFDYWGQGTQVTVSS”, which “polyreactivity (PSR sort gate)” value is on record?
**A.** The value was “high polyreactivity”.

**Q.** With “QVQLVESGGGLVQAGGSLRLSCAASGFIFWQYAMGWYRQAPGKERELVAAISGRGGRTYYADSVKGRFTISRDNAKNTVYLQMNSLKPEDTAVYYCNKVGPLVGGVKYYYWGQGTQVTVSS” as the sequence, how does the “polyreactivity (PSR sort gate)” value read?
**A.** The value was “high polyreactivity”.

**Q.** For “QVQLVESGGGLVQAGGSLRLSCAASGFIFWQYTMAWYRQAPGKERELVAAISFSGGRTYYADSVKGRFTISRDNAKNTVYLQMNSLKPEDTAVYYCAASAVPRQKGFYYWGQGTQVTVSS”, which “polyreactivity (PSR sort gate)” value is on record?
**A.** The value was “high polyreactivity”.

**Q.** Which “polyreactivity (PSR sort gate)” value does the source give for “QVQLVESGGGLVQAGGSLRLSCAASGFIFWRYAMGWYRQAPGKERELVAAISSGGNTKYADSVKGRFTISRDNAKNTVYLQMNSLKPEDTAVYYCAVLGKYLWSATNRFPGSYDSWGQGTQVTVSS” here?
**A.** Its value is “high polyreactivity”.

**Q.** With “QVQLVESGGGLVQAGGSLRLSCAASGFIFWSYAMGWYRQAPGKERELVAAISWSGGRTYYADSVKGRFTISRDNAKNTVYLQMNSLKPEDTAVYYCAAVKRYSSQYPALDYWGQGTQVTVSS” as the sequence, how does the “polyreactivity (PSR sort gate)” value read?
**A.** The value was “high polyreactivity”.

**Q.** For “QVQLVESGGGLVQAGGSLRLSCAASGFIFWYYAMGWYRQAPGKERELVAAISARDGSTYYADSVKGRFTISRDNAKNTVYLQMNSLKPEDTAVYYCNAVQRYPKFRMDYWGQGTQVTVSS”, which “polyreactivity (PSR sort gate)” value is on record?
**A.** Its value is “low polyreactivity”.

**Q.** With “QVQLVESGGGLVQAGGSLRLSCAASGFIFYAYAMGWSRQAPGKERELVAAISGSGGSTYYADSVKGRFTISRDNAKNTVYLQMNSLKPEDTAVYYCAARSRVSNRSYYYWGQGTQVTVSS” as the sequence, how does the “polyreactivity (PSR sort gate)” value read?
**A.** The value was “high polyreactivity”.

**Q.** With “QVQLVESGGGLVQAGGSLRLSCAASGFIFYDYDMGWYRQAPGKERELVAAITYSGGSTYYADSVKGRFTISRDNAKNTVYLQMNSLKPEDTAVYYCAAVKSRYAEAVDYYYWGLGTQVTVSS” as the sequence, how does the “polyreactivity (PSR sort gate)” value read?
**A.** Its value is “low polyreactivity”.

**Q.** For “QVQLVESGGGLVQAGGSLRLSCAASGFIFYDYMGWYRQAPGKERELVAVISYSGSSTYYADSVKGRFTISRDNAKNTVYLQMNSLKPEDTAVYYCAARNVNGWDYDYWGQGTQVTVSS”, which “polyreactivity (PSR sort gate)” value is on record?
**A.** Its value is “low polyreactivity”.

**Q.** Which “polyreactivity (PSR sort gate)” value does the source give for “QVQLVESGGGLVQAGGSLRLSCAASGFIFYGYAMGWYIQAPGKERELVATISRRGGSTYYADSVKGRFTISRDNAKNTVYLQMNSLKPEDSAVYYCAKRRGTQEPTYVPTRSNGFDYWGHGTQVTVSS” here?
**A.** Its value is “low polyreactivity”.

**Q.** With “QVQLVESGGGLVQAGGSLRLSCAASGFIFYHYAMGWYRQAPGKERELVAAISRRTGSTYYADSVKGRFTISRDNAKNTDYLQMNSLKPEDTSVYYCAADAYFIYSRYWYDYWGQGTQVTVSS” as the sequence, how does the “polyreactivity (PSR sort gate)” value read?
**A.** Its value is “high polyreactivity”.
